The values that follow come from the DeepSol protein solubility set.

A short description of the series: soluble on expression in E. coli; label from the status in PepcDB or PDB records.
With “GSAGERIYNISGNGSPLADSKEIFLTVPVGGGESLRLLASDLQRHSIAQLDPEALGNIKKLSNRLAQICSSIRTHK”, the “soluble on expression in E. coli” value was “soluble”.
The result for “GSAPRVQEELCLVCGDRASGYHYNALTCEGCKGFFRRSVTKSAVYCCKFGRACEMDMYMRRKCQECRLKKCLAVGMRPECVVPENQCAMKRREKKAQKEKDKMTTSPSSQHGSPGIHRD” reads “soluble”.
Next, “GSASDNAAYWSIATTMRSDNKALGAVSDALGMGAAKVDTASAGMDAAIKVVTDIKAKVVAAKEQGVDKTKVQEEVSQLLDQLKSIGTSASFNGENWLVSSANATKTVVSGFVRDAGGTVSVKTTDYALDANSMLYTEGTPGTIDANSGILNATGATTTVGAKTYTQISVLDMNVGTDDLDNALYSVETALTKMTSAGAKLGSLSARIDLQSGFADKLSDTIEKGVGRLV”: “not soluble”.
In the case of “GSATASDSTRRVSVRDKLLVKEVAELEANLPCTCKVHFPDPNKLHCFQLTVTPDEGYYQGGKFQFETEVPDAYNMVPPKVKCLTKIWHPNITETGEICLSLLREHSIDGTGWAPTRTLKDVVWGLNSLFTDLLNFDDPLNIEAAEHHLRDKEDFRNKVDDYIKRYAR”, the “soluble on expression in E. coli” value is given as “soluble”.
Next, “GSDDINQKVAEQLAQKAQSSSLGYDIVESLTVEVGPRLAGSEQDKVAVDWAIAKLQSLGFDRVYKEPVTVPVWRRGIAKASILSPFPQPLVVTALGGSIATPAQGLSATIVRFDTLQDLQNAEAGSLNDKIAFIDAKTERHRDGKGYGQTASGRSRGAVAAAEKGAVGIIIRSIGTDHDRMAHTGMMRYEEGVTAIPAAAISNPDADLINAMLKRDKEVVISLELGSERRGETTSYNVIAEVKGSTKADEIVLIGAHLDSWDEGTGAIDDGAGVAIVTAAAKHILDLPQKPERTIRVVLYAAEELGLLGGKTYAKEHEAELEKHYIAAESDFGAGPIYQIDWRVADTAHSPVINAMKVAEPLGVAAGNNKASGGPDVSMLPALGVPVASLRQDGSDYFDYHHTPNDTLDKINPEALAQNVAVYAQFAWVMANSKVELRPLPPKE”: “soluble”; “GSGSEPAVCEMCGIVGTREAFFSKTKRFCSVSCSRSYSSNSKK”: “soluble”; “GSGSGSDIEAYLERIGYKKSRNKLDLETLTDILQHQIRAVPFENLNIHCGDAMDLGLEAIFDQVVRRNRGGWCLQVNHLLYWALTTIGFETTMLGGYVYSTPAKKYSTGMIHLLLQVTIDGRNYIVDAGSGRSYQMWQPLELISGKDQPQVPCVFRLTEENGFWYLDQIRREQYIPNEEFLHSDLLEDSKYRKIYSFTLKPRTIEDFESMNTYLQTSPSSVFTSKSFCSLQTPDGVHCLVGFTLTHRRFNYKDNTDLIEFKTLSEEEIEKVLKNIFNISLQRKLVPKHGDRFFTI”: “soluble”.
As to “GSHGMSKSPEEEHPVKAFGWAARDQSGHLSPFNFSRRATGEEDVRFKVLYCGVCHSDLHSIKNDWGFSMYPLVPGHEIVGEVTEVGSKVKKVNVGDKVGVGCLVGACHSCESCANDLENYCPKMILTYASIYHDGTITYGGYSNHMVANERYIIRFPDNMPLDGGAPLLCAGITVYSPLKYFGLDEPGKHIGIVGLGGLGHVAVKFAKAFGSKVTVISTSPSKKEEALKNFGADSFLVSRDQEQMQAAAGTLDGIIDTVSAVHPLLPLFGLLKSHGKLILVGAPEKPLELPAFSLIAGRKIVAGSGIGGMKETQEMIDFAAKHNITADIEVISTDYLNTAMERLAKNDVRYRFVIDVGNTLAATKP”, the “soluble on expression in E. coli” value is “soluble”.
Regarding “GSHMASDRKTEFILCVETFNEKAKKGIQMLIEKGFIDSDSNRDIASFLFLNNGRLNKKTIGLLLCDPKKTSLLKEFIDLFDFKGLRVDEAIRILLTKFRLPGESQQIERIVEAFSSKYSADQSNDKVELEDKKAGKNGSESMTEDDIIHVQPDADSVFVLSYSIIMLNTDSHNPQVKDHMTFDDYSNNLRGCYNGKDFPRWYLHKIYTSIKVKEIVMPEEH”, the “soluble on expression in E. coli” value is on record as “soluble”.
The result for “GSHMECADVPLLTPSSKEMMSQALKATFSGFTKEQQRLGIPKDPRQWTETHVRDWVMWAVNEFSLKGVDFQKFCMSGAALCALGKECFLELAPDFVGDILWEHLEILQKEDVK” reads “soluble”.
“GSHMEEPSDLEELEQFAKTFKQRRIKLGFTQGDVGLAMGKLYGNDFSQTTISRFEALNLSFKNMAKLKPLLEKWLNDAENLSSDSSLSSPSALNSPGIEGLSERRKKRTSIETNIRVALEKSFLENQKPTSEEITMIADQLNMEKEVIRVWFCNRRQKEKRINPPSS”: the “soluble on expression in E. coli” value is “soluble”.
The result for “GSHMGIKNDLEIRLQKLQQQGNFKNYLEQYPTDASTAAYFLIEIYNDGNIGGRSVIDAGTGNGILACGSYLLGAESVTAFDIDPDAIETAKRNCGGVNFMVADVSEISGKYDTWIMNPPFGSVVKHSDRAFIDKAFETSMWIYSIGNAKARDFLRREFSARGDVFREEKVYITVPRIYRHHSYDRARIEAVIFGVRNHSF” reads “soluble”.
The result for “GSHMKISARNVFKGTVSALKEGAVNAEVDILLGGGDKLAAVVTLESARSLQLAAGKEVVAVVKAPWVLLMTDSSGYRLSARNILTGTVKTIETGAVNAEVTLALQGGTEITSMVTKEAVAELGLKPGASASAVIKASNVILGVPA” reads “soluble”; that for “GSHMLKEVWEELDGLDPNRFNPKTFFILHDINSDGVLDEQELEALFTKELEKVYDPKNEEDDMREMEEERLRMREHVMKNVDTNQDRLVTLEEFLASTQRKEF”, “soluble”; that for “GSHMMGAKMAESLRLTCLACGQANKVPSDRLAAGPKCGICGAGLITGKVAGIDPAILARAERDDLPLLVDFWAPWCGPCRQMAPQFQAAAATLAGQVRLAKIDTQAHPAVAGRHRIQGIPAFILFHKGRELARAAGARPASELVGFVRGKLGARA”, “soluble”.
The result for “GSHMNGGRPPHHPYDAKDVSEYSCRELHYTRFLTDGPCRSAKPVTELVCSGQCGPARLLPNAIGRVKWWRPNGPDFRCIPDRYRAQRVQLLCPGGAAPRSRKVRLVASCKCKR” reads “soluble”.
Regarding “GSHMRKTLVLLGAHGVGRRHIKNTLITKHPDRFAYPIPHTTRPPKKDEENGKNYYFVSHDQMMQDISNNEYLEYGSHEDAMYGTKLETIRKIHEQGLIAILDVEPQALKVLRTAEFAPFVVFIAAPTITPGLNEDESLQRLQKESDILQRTYAHYFDLTIINNEIDETIRHLEEAVELVC”, the “soluble on expression in E. coli” value is listed as “soluble”.
Next, “GSHMSDGLPNKKRKRRVLFTKAQTYELERRFRQQRYLSAPEREHLTSLIRLTPTQVKIWFQNHRYKTKRAQNEKGYEGHP”: “soluble”; “GSHMSPKIVDAGTATVPHTMSTMKTADNRPASVYLKKDKPTLIKFWASWCPLCLSELGQAEKWAQDAKFSSANLITVASPGFLHEKKDGEFQKWYAGLNYPKLPVVTDNGGTIAQNLNISVYPSWALIGKDGDVQRIVKGSINEAQALALIRNPNADLGSLKHS”: “soluble”; “GSHMSSGYPGVSWNKRMCAWLAFFYDGASRRSRTFHPKHFNMDKEKARLAAVEFMKTVENNGRKKLEPGGSQFIVTD”: “soluble”.
The result for “GSHMVEMRMKKCPKCGLYTLKEICPKCGEKTVIPKPPKFSLEDRWGKYRRMLKRALKNKNKAE” reads “soluble”.
The result for “GSHSMRYFYTAMSRPGRGEPRFIAVGYVDDTQFVRFDSDAASPRTEPRPPWIEQEGPEYWDRNTQIFKTNTQTYRENLRIALRYYNQSEAGSHIIQRMYGCDLGPDGRLLRGHDQSAYDGKDYIALNEDLSSWTAADTAAQITQRKWEAARVAEQLRAYLEGLCVEWLRRYLENGKETLQRADPPKTHVTHHPVSDHEATLRCWALGFYPAEITLTWQRDGEDQTQDTELVETRPAGDRTFQKWAAVVVPSGEEQRYTCHVQHEGLPKPLTLRWEPHH” reads “soluble”.
In the case of “GSKAPPTFKVSLMDQSVREGQDVIMSIRVQGEPKPVVSWLRNRQPVRPDQRRFAEEAEGGLCRLRILAAERGDAGFYTCKAVNEYGARQCEARLEVRGE”, the “soluble on expression in E. coli” value is recorded as “soluble”.
In the case of “GSKKKVKELKVLDSKTAQNLSIFLGSFRMPYQEIKNVILEVNEAVLTESMIQNLIKQMPEPEQLKMLSELKEEYDDLAESEQFGVVMGTVPRLRPRLNAILFKLQFSEQVENIKPEIVSVTAACEELRKSENFSSLLELTLLVGNYMNAGSRNAGAFGFNISFLCKLRDTKSADQKMTLLHFLAELCENDHPEVLKFPDELAHVEKASRVSAENLQKSLDQMKKQIADVERDVQNFPAATDEKDKFVEKMTSFVKDAQEQYNKLRMMHSNMETLYKELGDYFVFDPKKLSVEEFFMDLHNFRNMFLQAVKENQKRRETEEKMRRAKLAKEKAEKERLEKQ”, the “soluble on expression in E. coli” value was “soluble”.
The result for “GSMALPKDAIPSLSECQCGICMEILVEPVTLPCNHTLCKPCFQSTVEKASLCCPFCRRRVSSWTRYHTRRNSLVNVELWTIIQKHYPRECKLRASGQESEEVADDYQPVRLLSKP” reads “soluble”; that for “GSMLGMIRNSLFGSVETWPWQVLSTGGKEDVSYEERACEGGKFATVEVTDKPVDEALREAMPKIMKYVGGTNDKGVGMGMTVPVSFAVFPNEDGSLQKKLKVWFRIPNQFQGSPPAPSDESVKIEEREGITVYSTQFGGYAKEADYVAHATQLRTTLEGTPATYQGDVYYCAGYDPPMKPYGRRNEVWLVKA”, “soluble”.
Take “GSMTQIHQINDIDVHRITSGQVITDLTTAVKELVDNSIDANANQIEIIFKDYGLESIECSDNGDGIDPSNYEFLALKHYTSKIAKFQDVAKVQTLGFRGEALSSLCGIAKLSVITTTSPPKADKLEYDMVGHITSKTTTSRNKGTTVLVSQLFHNLPVRQKEFSKTFKRQFTKCLTVIQGYAIINAAIKFSVWNITPKGKKNLILSTMRNSSMRKNISSVFGAGGMRGLEEVDLVLDLNPFKNRMLGKYTDDPDFLDLDYKIRVKGYISQNSFGCGRNSKDRQFIYVNKRPVEYSTLLKCCNEVYKTFNNVQFPAVFLNLELPMSLIDVNVTPDKRVILLHNERAVIDIFKTTLSDYYNRQELALPK”: the “soluble on expression in E. coli” value is “soluble”.
Consider “GSPHMDEISETNTIFKLEGVSVLSPLRKKLDLVFYLSNVDGSPVITLLKGNDRELSIYQLNKNIKMASFLPVPEKPNLIYLFMTYTSCEDNKFSEPVVMTLNKENTLNQFKNLGLLDSNVTDFEKCVEYIRKQAILTGFKISNPFVNSTLVDTDAEKINSFHLQCHRGTKEGTLYFLPDHIIFGFKKPILLFDASDIESITYSSITRLTFNASLVTKDGEKYEFSMTDQTEYAKIDDYVKRKQMKDKSMSEELKAKSKSKG”, for which the “soluble on expression in E. coli” value is listed as “soluble”.
For “GSPPWRGRREQCLLPPEDSRLWQYLLSRSMREHPALRSLRLLTLEQPQGDSMMTCEQAQLLANLARLIQAKKALDLGTFTGYSALALALALPADGRVVTCEVDAQPPELGRPLWRQAEAEHKIDLRLKPALETLDELLAAGEAGTFDVAVVDADKENCSAYYERCLQLLRPGGILAVLRVLWRGKVLQPPKGDVAAECVRNLNERIRRDVRVYISLLPLGDGLTLAFKI”, the “soluble on expression in E. coli” value was “soluble”.
Next, “GSQSSERVVIGSKPFNEQYILANMIAILLEENGYKAEVKEGLGGTLVNYEALKRNDIQLYVEYTGTAYNVILRKQPPELWDQQYIFDEVKKGLLEADGVVVAAKLGFRDDYALAVRADWAEENGVEKISDLAEFADQLVFGSDPEFASRPDGLPQIKKVYGFEFKEVKQMEPTLMYEAIKNKQVDVIPAYTTDSRVDLFNLKILEDDKGALPPYDAIIIVNGNTAKDEKLISVLKLLEDRIDTDTMRALNYQYDVEKKDAREIAMSFLKEQGLVK”: “soluble”.
